Test results as given in patent publication US5621089.

Target: casein

proteolytic activity (Casein Protease Units, CPU): 120 CPU/l
Substance: PD498 alkaline protease (protease purified from Bacillus sp. PD498, NCIMB No. 40484) (enzyme)
